From paper PMC9303389, “On the stability of stalled RNA polymerase and its removal by RapA” (Nucleic Acids Research, 2022)

Substrate: Nc1ncnc2c1ncn2[C@@H]1O[C@H](COP(=O)(O)OP(=O)(O)OP(=O)(O)O)[C@@H](O)[C@H]1O
Test: single-molecule magnetic trapping, stalled RNAP dissociation lifetime versus [ATP]
Assay type: biochemical, Escherichia coli
Settings: saturating RapA, RNAP stalled at +20 on positively supercoiled DNA, 0.3 pN, 200 μM GTP and UTP, 8 mM MgCl2, pH 8.0, 34°C, kcat is RNAP dissociation rate at saturating RapA and ATP, not ATP hydrolysis

B1: RapA-RNAP complex (Escherichia coli K-12) (protein)
chain: PFTLGQRWISDTESELGLGTVVAVDARTVTLLFPSTGENRLYARSDSPVTRVMFNPGDTITSHDGWQMQVEEVKEENGLLTYIGTRLDTEESGVALREVFLDSKLVFSKPQDRLFAGQIDRMDRFALRYRARKYSSEQFRMPYSGLRGQRTSLIPHQLNIAHDVGRRHAPRVLLADEVGLGKTIEAGMILHQQLLSGAAERVLIIVPETLQHQWLVEMLRRFNLRFALFDDERYAEAQHDAYNPFDTEQLVICSLDFARRSKQRLEHLCEAEWDLLVVDEAHHLVWSEDAPSREYQAIEQLAEHVPGVLLLTATPEQLGMESHFARLRLLDPNRFHDFAQFVEEQKNYRPVADAVAMLLAGNKLSNDELNMLGEMIGEQDIEPLLQAANSDSEDAQSARQELVSMLMDRHGTSRVLFRNTRNGVKGFPKRELHTIKLPLPTQYQTAIKVSGIMGARKSAEDRARDMLYPERIYQEFEGDNATWWNFDPRVEWLMGYLTSHRSQKVLVICAKAATALQLEQVLREREGIRAAVFHEGMSIIERDRAAAWFAEEDTGAQVLLCSEIGSEGRNFQFASHMVMFDLPFNPDLLEQRIGRLDRIGQAHDIQIHVPYLEKTAQSVLVRWYHEGLDAFEHTCPTGRTIYDSVYNDLINYLASPDQTEGFDDLIKNCREQHEALKAQLEQGRDRLLEIHSNGGEKAQALAESIEEQDDDTNLIAFAMNLFDIIGINQDDRGDNMIVLTPSDHMLVPDFPGLSEDGITITFDREVALAREDAQFITWEHPLIRNGLDLILSGDTGSSTISLLKNKALPVGTLLVELIYVVEAQAPKQLQLNRFLPPTPVRMLLDKNGNNLAAQVEFETFNRQLNAVNRHTGSKLVNAVQQDVHAILQLGEAQIEKSARALIDAARNEADEKLSAELSRLEALRAVNPNIRDDELTAIESNRQQVMESLDQAGWRLDALRLIVVTHQ
notes: full-length RapA, N-terminal His6 tag (pQE80L, expressed in BL21(DE3)), 110 kDa; RNAP core saturated with sigma70 (rpoD) for initiation, then stalled as elongation complex on DNA; with DNA-directed RNA polymerase subunit alpha; DNA-directed RNA polymerase subunit beta; DNA-directed RNA polymerase subunit beta'; DNA-directed RNA polymerase subunit omega
Km: 160 ± 35 µM | kcat: 1.1 × 10^–3 ± 0.5 × 10^–5 s^–1
